Results published in the supplement of paper PMC10567573.

B1: CRYL1 (parent)
chain: RNALENIRKEMKLLEQAGSLKGSL
B2: ZNF8 (parent)
chain: SLGRHKRTHTGEKPYTCSVCGKSF

Variants of: B1
Assay: protein stability index of a GFP-peptide fusion (GPS, HEK-293T) (PSI 1-6); higher = more stable
Details: c terminus: a fixed tail appended
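Further: lentivirally expressed fusions sorted by FACS into six bins by GFP to DsRed ratio, PSI derived from sequencing read proportions per bin multiplied by bin number.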

Row | Variant | protein stability index
1 | RNALENIRKEMKLLEQAGRLKGSL | 3.08
2 | RNALENIRKEMKLLEQAGTLKGSL | 3.22
3 | RNALENIRKEMKLLEQAGVLKGSL | 2.66
4 | RNALENIRKEMKLLEQAGWLKGSL | 2.03
5 | RNALENIRKEMKLLEQAGYLKGSL | 2.17
6 | RNALENIRKEMKLLEQAGSCKGSL | 3.65
7 | RNALENIRKEMKLLEQAGSDKGSL | 4.16
8 | RNALENIRKEMKLLEQAGSEKGSL | 4.79
9 | RNALENIRKEMKLLEQAGSFKGSL | 2.86
10 | RNALENIRKEMKLLEQAGSGKGSL | 4.08
11 | RNALENIRKEMKLLEQAGSHKGSL | 3.99
12 | RNALENIRKEMKLLEQAGSKKGSL | 4.55
13 | RNALENIRKEMKLLEQAGSMKGSL | 2.84
14 | RNALENIRKEMKLLEQAGSNKGSL | 4.28
15 | RNALENIRKEMKLLEQAGSPKGSL | 4.09
16 | RNALENIRKEMKLLEQAGSQKGSL | 4.71
17 | RNALENIRKEMKLLEQAGSRKGSL | 4.17
18 | RNALENIRKEMKLLEQAGSSKGSL | 3.98
19 | RNALENIRKEMKLLEQAGSTKGSL | 3.56
20 | RNALENIRKEMKLLEQAGSVKGSL | 4.17
21 | RNALENIRKEMKLLEQAGSWKGSL | 2.9
22 | RNALENIRKEMKLLEQAGSYKGSL | 3.9
23 | RNALENIRKEMKLLEQAGSLAGSL | 2.71

Row | Variant | protein stability index
24 | RNALENIRKEMKLLEQAGSLCGSL | 3.3
25 | RNALENIRKEMKLLEQAGSLDGSL | 3.55
26 | RNALENIRKEMKLLEQAGSLEGSL | 3.93
27 | RNALENIRKEMKLLEQAGSLFGSL | 2.35
28 | RNALENIRKEMKLLEQAGSLGGSL | 2.56
29 | RNALENIRKEMKLLEQAGSLIGSL | 2.4
30 | RNALENIRKEMKLLEQAGSLLGSL | 2.37
31 | RNALENIRKEMKLLEQAGSLNGSL | 3.34
32 | RNALENIRKEMKLLEQAGSLPGSL | 2.79
33 | RNALENIRKEMKLLEQAGSLQGSL | 3.18
34 | RNALENIRKEMKLLEQAGSLRGSL | 2.68
35 | RNALENIRKEMKLLEQAGSLSGSL | 3.46
36 | RNALENIRKEMKLLEQAGSLTGSL | 3.6
37 | RNALENIRKEMKLLEQAGSLVGSL | 2.73
38 | RNALENIRKEMKLLEQAGSLWGSL | 2.17
39 | RNALENIRKEMKLLEQAGSLYGSL | 2.78
40 | RNALENIRKEMKLLEQAGSLKASL | 3.21
41 | RNALENIRKEMKLLEQAGSLKCSL | 2.65
42 | RNALENIRKEMKLLEQAGSLKDSL | 4.1
43 | RNALENIRKEMKLLEQAGSLKESL | 3.57
44 | RNALENIRKEMKLLEQAGSLKFSL | 2.65
45 | RNALENIRKEMKLLEQAGSLKHSL | 2.94
46 | RNALENIRKEMKLLEQAGSLKISL | 1.4

Row | Variant | protein stability index
47 | RNALENIRKEMKLLEQAGSLKKSL | 4.21
48 | RNALENIRKEMKLLEQAGSLKLSL | 2.02
49 | RNALENIRKEMKLLEQAGSLKMSL | 2.27
50 | RNALENIRKEMKLLEQAGSLKNSL | 3.04
51 | RNALENIRKEMKLLEQAGSLKPSL | 3.51
52 | RNALENIRKEMKLLEQAGSLKQSL | 3.36
53 | RNALENIRKEMKLLEQAGSLKRSL | 3.4
54 | RNALENIRKEMKLLEQAGSLKSSL | 3.14
55 | RNALENIRKEMKLLEQAGSLKTSL | 3.77
56 | RNALENIRKEMKLLEQAGSLKVSL | 2.15
57 | RNALENIRKEMKLLEQAGSLKWSL | 2
58 | RNALENIRKEMKLLEQAGSLKYSL | 2.28
59 | RNALENIRKEMKLLEQAGSLKGAL | 2.9
60 | RNALENIRKEMKLLEQAGSLKGCL | 3.08
61 | RNALENIRKEMKLLEQAGSLKGDL | 3.48
62 | RNALENIRKEMKLLEQAGSLKGEL | 3.84
63 | RNALENIRKEMKLLEQAGSLKGFL | 2.64
64 | RNALENIRKEMKLLEQAGSLKGGL | 3.4
65 | RNALENIRKEMKLLEQAGSLKGHL | 3.12
66 | RNALENIRKEMKLLEQAGSLKGIL | 2.45
67 | RNALENIRKEMKLLEQAGSLKGKL | 3.39
68 | RNALENIRKEMKLLEQAGSLKGLL | 1.87
69 | RNALENIRKEMKLLEQAGSLKGML | 2.27

Row | Variant | protein stability index
70 | RNALENIRKEMKLLEQAGSLKGNL | 3.22
71 | RNALENIRKEMKLLEQAGSLKGPL | 3.56
72 | RNALENIRKEMKLLEQAGSLKGQL | 3.32
73 | RNALENIRKEMKLLEQAGSLKGRL | 3.07
74 | RNALENIRKEMKLLEQAGSLKGTL | 2.8
75 | RNALENIRKEMKLLEQAGSLKGVL | 2.2
76 | RNALENIRKEMKLLEQAGSLKGWL | 1.95
77 | RNALENIRKEMKLLEQAGSLKGYL | 2.73
78 | RNALENIRKEMKLLEQAGSLKGSA | 4.11
79 | RNALENIRKEMKLLEQAGSLKGSC | 4.05
80 | RNALENIRKEMKLLEQAGSLKGSD | 3.99
81 | RNALENIRKEMKLLEQAGSLKGSE | 4.08
82 | RNALENIRKEMKLLEQAGSLKGSF | 3.13
83 | RNALENIRKEMKLLEQAGSLKGSI | 3.2
84 | RNALENIRKEMKLLEQAGSLKGSK | 4.12
85 | RNALENIRKEMKLLEQAGSLKGSM | 3.3
86 | RNALENIRKEMKLLEQAGSLKGSN | 3.81
87 | RNALENIRKEMKLLEQAGSLKGSP | 3.77
88 | RNALENIRKEMKLLEQAGSLKGSS | 3.95
89 | RNALENIRKEMKLLEQAGSLKGST | 3.47
90 | RNALENIRKEMKLLEQAGSLKGSV | 3.66
91 | RNALENIRKEMKLLEQAGSLKGSW | 3.16
92 | RNALENIRKEMKLLEQAGSLKGSY | 3.08

Variants of: B2
Assay: as above
Details: c terminus: a fixed tail appended

Row | Variant | protein stability index
93 | ALGRHKRTHTGEKPYTCSVCGKSF | 2.86
94 | CLGRHKRTHTGEKPYTCSVCGKSF | 3.6
